Assay results reported in patent US20040204388A1 (UCB, published 2004).

Target: T1, SV2A (rat); native protein of rat brain membranes, solubilized in n-dodecyl-β-D-maltoside; also endogenous in … (rat, UniProt Q02563 1-742)
T1 construct: Native protein from rat tissue or cells, not a recombinant construct; Native glycosylated integral membrane protein; also called soluble SV2A; immunopurified SV2A
Assay: Western blot of fractions immunopurified with anti-SV2A antibodies from solubilized rat brain membranes
Method: The rat brain membranes were diluted in a solubilization buffer (Tris-HCl 20 mM pH 7.4, 0.25 M sucrose, protease inhibitors Complete Roche) containing n-dodecyl-β-D-maltoside 15 mM and incubated for two hours at 4° C. Subsequently, the solution was centrifuged at 4° C. for one hour at 100,000 g.

T1 sequence (Q02563 whole entry C340F): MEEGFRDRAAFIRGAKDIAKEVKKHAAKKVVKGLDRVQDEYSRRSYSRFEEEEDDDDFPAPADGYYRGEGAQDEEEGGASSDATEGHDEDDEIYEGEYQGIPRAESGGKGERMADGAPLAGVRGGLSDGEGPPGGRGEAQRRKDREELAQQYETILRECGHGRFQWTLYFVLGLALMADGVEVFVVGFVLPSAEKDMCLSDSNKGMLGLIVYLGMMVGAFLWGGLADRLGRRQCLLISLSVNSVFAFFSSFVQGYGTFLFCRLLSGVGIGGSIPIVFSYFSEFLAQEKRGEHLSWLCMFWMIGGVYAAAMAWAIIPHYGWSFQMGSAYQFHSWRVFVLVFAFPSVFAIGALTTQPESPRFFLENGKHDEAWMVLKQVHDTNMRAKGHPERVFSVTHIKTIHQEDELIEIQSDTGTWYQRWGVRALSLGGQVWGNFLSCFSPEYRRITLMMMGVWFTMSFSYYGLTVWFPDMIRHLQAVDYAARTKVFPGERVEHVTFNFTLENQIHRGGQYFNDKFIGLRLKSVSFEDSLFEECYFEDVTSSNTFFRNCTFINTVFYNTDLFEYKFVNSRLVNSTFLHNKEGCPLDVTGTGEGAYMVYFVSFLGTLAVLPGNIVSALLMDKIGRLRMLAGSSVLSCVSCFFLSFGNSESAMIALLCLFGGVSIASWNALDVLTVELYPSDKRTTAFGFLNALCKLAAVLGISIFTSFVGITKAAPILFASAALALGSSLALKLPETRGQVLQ

binding result: no binding
B1: SV2B (rat; native isoform in rat brain membranes) (other)
chain: MDDYRYRDNYEGYAPNDGYYRGNEQNPEEDAQSDVTEGHDEEDEIYEGEYQGIPHPDDVKSKQTKMAPSRADGLRGQADLMAERMEDEEQLAHQYETIIDECGHGRFQWTLFFVLVLALMADGVEVFVVSFALPSAEKDMCLSSSKKGMLGLIVYLGMMAGAFILGGLADKLGRKKVLSMSLAINASFASLSSFVQGYGAFLFCRLISGIGIGGSLPIVFAYFSEFLSREKRGEHLSWLGIFWMTGGIYASAMAWSIIPHYGWGFSMGTNYHFHSWRVFVIVCALPATVSMVALKFMPESPRFLLEMGKHDEAWMILKQVHDTNMRAKGTPEKVFTVSHIKTPKQMDEFIEIQSSTGTWYQRWLVRFMTIFKQVWDNALYCVMGPYRMNTLILAVVWFTMALSYYGLTVWFPDMIRYFQDEEYKSKMKVFFGEHVHGATINFTMENQIHQHGKLVNDKFIKMYFKHVLFEDTFFDKCYFEDVTSTDTYFKNCTIESTTFYNTDLYKHKFIDCRFINSTFLEQKEGCHMDFEEDNDFLIYLVSFLGSLSVLPGNIISALLMDRIGRLKMIGGSMLISAVCCFFLFFGNSESAMIGWQCLFCGTSIAAWNALDVITVELYPTNQRATAFGILNGLCKLGAILGNTIFASFVGITKVVPILLAAASLVGGGLVALRLPETREQVLM
notes: Native protein of rat brain; also called isoform SV2B
